For test [1], the target named is T1, rhesus CD19 on cells (CD20+ B cells of rhesus PBMC) (rhesus, UniProt F7F486 20-557).
T1 construct: also called Rhesus CD20+
T1 sequence: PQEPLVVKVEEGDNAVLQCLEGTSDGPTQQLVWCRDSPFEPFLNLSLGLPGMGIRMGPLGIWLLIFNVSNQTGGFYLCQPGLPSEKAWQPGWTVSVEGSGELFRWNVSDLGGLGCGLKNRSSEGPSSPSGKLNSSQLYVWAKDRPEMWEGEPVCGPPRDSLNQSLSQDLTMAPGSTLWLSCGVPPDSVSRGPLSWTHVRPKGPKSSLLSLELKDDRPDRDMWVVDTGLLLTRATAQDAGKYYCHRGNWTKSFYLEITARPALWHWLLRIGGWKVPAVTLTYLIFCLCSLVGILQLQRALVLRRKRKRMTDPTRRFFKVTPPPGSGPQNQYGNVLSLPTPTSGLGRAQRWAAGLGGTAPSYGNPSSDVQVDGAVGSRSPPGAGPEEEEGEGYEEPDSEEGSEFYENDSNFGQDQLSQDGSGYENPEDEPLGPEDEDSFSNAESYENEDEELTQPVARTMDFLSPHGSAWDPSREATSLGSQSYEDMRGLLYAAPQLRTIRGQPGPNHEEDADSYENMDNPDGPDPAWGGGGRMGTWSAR
The experiment in a line: flow cytometry, dose response on rhesus CD20+ lymphocytes. Here is the method:
(§1) To determine if the humanization alters the cross reactivity, the flow cytometry was carried out. The SI-63C2 antibody was used to bind the peripheral blood mononuclear cells derived from human, cynomolgus, and rhesus, respectively. Lymphocytes were gated based on forward and side scatter, followed by single cells based on the ratio of forward scatter signal height and area. Viable CD20+ B-cell and CD20− lymphocytes are gated based on the exclusion of membrane permeable amine reactive dye and the binding level of CD20 antibody (clone 2H7, Biolegend). Binding of the labelled antibody was determined as the geometric mean fluorescence intensity (gMFI) of the cell population for the fluorescent conjugate's emission channel. As shown in the histogram analysis in FIG. 4, the SI-63C2 antibody binds to CD20+ B cells from human, cynomolgus, and rhesus (4A) but not to their CD20− lymphocytes (4B).

The target of test [2] is T2, cynomolgus CD19 on cells (CD20+ B cells of cynomolgus PBMC) (cynomolgus).
T2 construct: whole, on cells; also called Cynomolgus CD20+
Nature of the test: flow cytometry, dose response on cynomolgus CD20+ lymphocytes. Here is the method:
as §1
Background: Flow cytometry measures light scatter and fluorescence of single cells or particles in a stream.

In test [3] the target is T3, human CD19 protein (R&D Biosystems Cat #9269-CD-050) (human, UniProt P15391 20-291).
T3 sequence (looked up): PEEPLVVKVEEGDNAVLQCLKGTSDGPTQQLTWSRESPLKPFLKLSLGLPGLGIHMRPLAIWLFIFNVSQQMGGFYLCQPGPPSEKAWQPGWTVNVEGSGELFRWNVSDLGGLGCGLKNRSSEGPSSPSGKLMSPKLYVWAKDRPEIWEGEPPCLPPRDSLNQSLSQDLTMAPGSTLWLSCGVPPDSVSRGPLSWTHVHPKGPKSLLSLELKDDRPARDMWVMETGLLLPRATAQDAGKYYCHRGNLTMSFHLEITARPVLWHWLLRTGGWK
The experiment in a line: BLI (Octet), antibody on anti-human Fc biosensor, human CD19 as analyte. The procedure:
(§2) The purified SI-63C1, SI-63C2, and SI-34C1 antibodies were tested for their binding affinity using biolayer interferometry (ForteBio OctetRED 384). The antibodies were bound to anti-human Fc biosensors, and human CD19 protein (R&D Biosystems Cat #9269-CD-050) was used as the analyte in a 4-point series of 2-fold dilutions with the highest concentration starting at 200 nM.

The target in test [4] is T4, human CD19 on cells (CD20+ B cells of human PBMC; Raji lymphoma cells) (human, UniProt P15391 20-556).
T4 construct: whole, on cells; also called Human CD20+
T4 sequence (looked up): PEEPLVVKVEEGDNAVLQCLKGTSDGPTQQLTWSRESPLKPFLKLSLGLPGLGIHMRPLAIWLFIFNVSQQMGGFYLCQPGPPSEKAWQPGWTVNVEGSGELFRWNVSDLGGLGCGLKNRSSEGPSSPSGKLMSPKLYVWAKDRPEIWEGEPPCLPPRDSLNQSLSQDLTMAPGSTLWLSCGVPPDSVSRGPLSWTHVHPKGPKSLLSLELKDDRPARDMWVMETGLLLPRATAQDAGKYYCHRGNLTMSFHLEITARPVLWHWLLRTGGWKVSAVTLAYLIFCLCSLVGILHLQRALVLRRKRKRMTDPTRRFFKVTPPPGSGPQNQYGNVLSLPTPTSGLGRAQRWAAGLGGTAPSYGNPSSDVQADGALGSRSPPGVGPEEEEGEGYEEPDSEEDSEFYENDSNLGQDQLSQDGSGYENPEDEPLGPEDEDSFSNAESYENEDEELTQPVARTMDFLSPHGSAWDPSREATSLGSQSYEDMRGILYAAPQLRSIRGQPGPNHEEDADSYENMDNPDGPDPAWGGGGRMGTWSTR
Nature of the test: flow cytometry, dose response on human CD20+ lymphocytes; human CD20+ lymphocytes. Here is the method:
as §1

Test [5] deals with T3, human CD19 protein (R&D Biosystems Cat …). Nature of the test: BLI (Octet), antibody on anti-human Fc biosensors, CD19 protein as analyte; human CD19. The procedure: as §2

B1: SI-63C2 (recombinant mAb with H1 humanized anti-CD19 variable sequence) (antibody, V domains shown)
VH: QVTLKESGPGLVQPGQTLRLTCAFSGFSLSTSGMGVGWIRQPPGKGLEWLAHIWWDDDKRYNPALKSRLTISKDTSKNQVYLQMNSLDAEDTAVYYCARMELWSYYFDYWGQGTLVTVSS
VL: ENVLTQSPASLSASPGERVTITCSASSSVSYMHWYQQKPGQAPKLWIYDTSKLASGVPSRFSGSGSGNDHTLTISSMEPEDFATYYCFQGSVYPFTFGQGTKLEIKR
notes: H1 VH/VL on human kappa and human IgG CH1-Fc; also called SI-huCD19; humanized BU12, H1
In general, EC50 refers to the midpoint of the concentration-response curve. Low readings indicate an effect from little substance, high ones a need for much substance. For orientation: Kd means the equilibrium constant for the complex coming apart. Read a low Kd as tighter binding. As usually defined, the koff is the rate constant with which the complex falls apart. Low readings indicate a long-lived complex, high ones a short-lived complex. As a reminder, the kon is the second-order rate constant of association. A high value points to fast association. With B1, the EC50 came out at 0.666 mg/L in test [1], 2.9 mg/L in test [2] and 0.0397 mg/L in test [4]. In addition, the Kd was found to be 3.77 nM in test [3] and 3.8 nM in test [5]. In test [3], this molecule registered a koff of 0.000229 s⁻¹. The kon in test [3] amounted to 60800 M⁻¹ s⁻¹.

These data come from patent US20230086069A1 (SYSTIMMUNE, published 2023).
